# Earlier results in article PMC6018615.
# Molecular target: TNPO1 (Homo sapiens) (UniProt Q92973)
# UniProt Q92973, sequence (Q92973 whole entry): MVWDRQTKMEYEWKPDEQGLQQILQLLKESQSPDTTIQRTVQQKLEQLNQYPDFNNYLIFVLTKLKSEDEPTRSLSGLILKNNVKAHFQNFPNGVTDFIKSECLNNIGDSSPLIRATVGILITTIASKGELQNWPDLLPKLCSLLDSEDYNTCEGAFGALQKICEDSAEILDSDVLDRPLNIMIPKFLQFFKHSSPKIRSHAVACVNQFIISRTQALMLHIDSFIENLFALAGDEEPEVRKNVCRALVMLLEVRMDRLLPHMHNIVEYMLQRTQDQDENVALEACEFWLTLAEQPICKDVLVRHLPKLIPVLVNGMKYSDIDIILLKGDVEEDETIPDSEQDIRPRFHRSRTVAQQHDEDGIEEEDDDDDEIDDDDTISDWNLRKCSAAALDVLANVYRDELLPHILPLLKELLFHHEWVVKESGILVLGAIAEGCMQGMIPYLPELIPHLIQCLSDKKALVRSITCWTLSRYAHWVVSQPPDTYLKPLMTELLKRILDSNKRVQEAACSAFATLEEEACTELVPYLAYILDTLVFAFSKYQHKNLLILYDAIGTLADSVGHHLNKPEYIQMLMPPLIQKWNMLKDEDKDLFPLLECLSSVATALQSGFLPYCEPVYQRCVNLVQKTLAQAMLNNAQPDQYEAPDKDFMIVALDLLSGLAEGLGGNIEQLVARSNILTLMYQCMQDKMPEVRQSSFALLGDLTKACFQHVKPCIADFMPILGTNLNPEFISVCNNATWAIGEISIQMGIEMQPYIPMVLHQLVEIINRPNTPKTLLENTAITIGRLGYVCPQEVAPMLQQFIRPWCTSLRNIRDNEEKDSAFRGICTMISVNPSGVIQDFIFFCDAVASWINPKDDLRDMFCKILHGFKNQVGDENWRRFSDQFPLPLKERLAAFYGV
substance,measurement,value
FUS (from UniProt P35637),Kd,9.5 nM
